Assay results as given in publication PMC10567730, “PTPN23 ubiquitination by WDR4 suppresses EGFR and c-MET degradation to define a lung cancer therapeutic target” (Cell Death & Disease, 2023).

Biological target: T1, His-PTPN23 (UniProt Q9H3S7 1-1636)
T1 construct: PTPN23 cDNA amplified and subcloned to pVL1392 with a His-tag; also called baculovirally purified PTPN23; source: baculovirus, purified (Ni-Sepharose beads, eluted with imidazole)
Assay: pull-down; GST-WDR4 bound on glutathione beads incubated with purified PTPN23 or PTPN23 segments; binding buffer 50 mM Tris-HCl pH 7.5, 150 mM NaCl, 1% NP-40; bound proteins by Western blot
Settings: both partners purified

T1 sequence (Q9H3S7 whole entry): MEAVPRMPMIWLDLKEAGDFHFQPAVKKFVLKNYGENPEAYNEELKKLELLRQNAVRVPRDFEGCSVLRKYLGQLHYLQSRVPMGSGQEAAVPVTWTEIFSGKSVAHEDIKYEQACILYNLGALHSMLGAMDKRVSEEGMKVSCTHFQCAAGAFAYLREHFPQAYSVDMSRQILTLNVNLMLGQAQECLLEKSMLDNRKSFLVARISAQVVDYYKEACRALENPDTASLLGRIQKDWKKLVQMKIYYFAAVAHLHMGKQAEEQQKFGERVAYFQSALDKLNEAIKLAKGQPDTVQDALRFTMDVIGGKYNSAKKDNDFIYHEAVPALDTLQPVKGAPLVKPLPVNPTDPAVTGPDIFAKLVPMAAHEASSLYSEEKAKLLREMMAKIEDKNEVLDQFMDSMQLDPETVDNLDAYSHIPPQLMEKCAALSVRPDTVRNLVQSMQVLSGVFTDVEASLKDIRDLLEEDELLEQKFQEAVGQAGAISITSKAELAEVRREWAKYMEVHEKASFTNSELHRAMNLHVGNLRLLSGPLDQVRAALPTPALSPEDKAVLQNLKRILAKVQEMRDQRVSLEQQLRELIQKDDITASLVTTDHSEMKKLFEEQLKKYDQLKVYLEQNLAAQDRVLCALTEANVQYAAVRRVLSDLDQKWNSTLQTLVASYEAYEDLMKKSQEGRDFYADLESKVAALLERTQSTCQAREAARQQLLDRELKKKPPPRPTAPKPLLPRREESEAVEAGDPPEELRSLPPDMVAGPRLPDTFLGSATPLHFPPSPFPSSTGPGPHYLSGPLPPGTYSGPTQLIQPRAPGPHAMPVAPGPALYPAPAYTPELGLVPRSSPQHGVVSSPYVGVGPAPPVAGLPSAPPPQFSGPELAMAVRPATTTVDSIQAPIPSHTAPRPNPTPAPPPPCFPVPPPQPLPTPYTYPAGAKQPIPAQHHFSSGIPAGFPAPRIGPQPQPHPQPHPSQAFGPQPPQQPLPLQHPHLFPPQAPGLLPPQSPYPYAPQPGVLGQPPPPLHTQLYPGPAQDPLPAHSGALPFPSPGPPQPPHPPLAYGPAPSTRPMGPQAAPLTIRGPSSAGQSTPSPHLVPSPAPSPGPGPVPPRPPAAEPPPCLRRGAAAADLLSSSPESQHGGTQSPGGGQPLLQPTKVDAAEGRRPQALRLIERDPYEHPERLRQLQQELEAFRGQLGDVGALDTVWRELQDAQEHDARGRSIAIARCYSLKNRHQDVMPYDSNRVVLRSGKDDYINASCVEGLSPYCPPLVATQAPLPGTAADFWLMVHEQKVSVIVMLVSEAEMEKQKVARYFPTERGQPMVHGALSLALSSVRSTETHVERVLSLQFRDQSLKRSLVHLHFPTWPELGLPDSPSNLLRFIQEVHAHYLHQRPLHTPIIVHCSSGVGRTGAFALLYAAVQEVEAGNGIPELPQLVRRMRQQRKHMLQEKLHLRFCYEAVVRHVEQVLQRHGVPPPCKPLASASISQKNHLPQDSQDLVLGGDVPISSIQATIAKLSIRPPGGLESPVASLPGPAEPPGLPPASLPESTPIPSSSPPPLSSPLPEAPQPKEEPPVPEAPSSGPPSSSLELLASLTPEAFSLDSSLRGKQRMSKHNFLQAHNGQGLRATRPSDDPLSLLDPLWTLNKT

- binding result: binds
B1: GST-WDR4 (natural protein, UniProt P57081 1-412, looked up)
chain: MAGSVGLALCGQTLVVRGGSRFLATSIASSDDDSLFIYDCSAAEKKSQENKGEDAPLDQGSGAILASTFSKSGSYFALTDDSKRLILFRTKPWQCLSVRTVARRCTALTFIASEEKVLVADKSGDVYSFSVLEPHGCGRLELGHLSMLLDVAVSPDDRFILTADRDEKIRVSWAAAPHSIESFCLGHTEFVSRISVVPTQPGLLLSSSGDGTLRLWEYRSGRQLHCCHLASLQELVDPQAPQKFAASRIAFWCQENCVALLCDGTPVVYIFQLDARRQQLVYRQQLAFQHQVWDVAFEETQGLWVLQDCQEAPLVLYRPVGDQWQSVPESTVLKKVSGVLRGNWAMLEGSAGADASFSSLYKATFDNVTSYLKKKEERLQQQLEKKQRRRSPPPGPDGHAKKMRPGEATLSC
notes: WDR4 cDNA amplified by PCR and cloned to pGEX-4T-1; pGEX-4T-1 would place GST at the N-terminus (surmised from the vector); also called bacterially purified GST-WDR4
